Assay results as given in paper PMC2964679, “Characterization of exceptionally thermostable single-stranded DNA-binding proteins from Thermotoga maritima and Thermotoga neapolitana” (BMC Microbiology, 2010).

T1: TmaSSB (Thermotoga maritima MSB8 (DSM 3106), UniProt Q9WZ73 1-141)
T1 sequence: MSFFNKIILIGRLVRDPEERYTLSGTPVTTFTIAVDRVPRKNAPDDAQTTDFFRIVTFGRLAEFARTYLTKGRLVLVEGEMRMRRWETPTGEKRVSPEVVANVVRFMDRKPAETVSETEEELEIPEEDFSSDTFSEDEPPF

T2: TneSSB (Thermotoga neapolitana DSM 4359, UniProt D1M925 1-142)
T2 sequence: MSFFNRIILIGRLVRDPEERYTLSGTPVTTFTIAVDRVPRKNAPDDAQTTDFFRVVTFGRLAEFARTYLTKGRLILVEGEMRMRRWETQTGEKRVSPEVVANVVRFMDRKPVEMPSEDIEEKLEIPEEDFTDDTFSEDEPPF

B1: single-stranded DNA-binding protein from Thermotoga maritima (TmaSSB) (natural protein, UniProt Q9WZ73 1-141, looked up)
chain: MSFFNKIILIGRLVRDPEERYTLSGTPVTTFTIAVDRVPRKNAPDDAQTTDFFRIVTFGRLAEFARTYLTKGRLVLVEGEMRMRRWETPTGEKRVSPEVVANVVRFMDRKPAETVSETEEELEIPEEDFSSDTFSEDEPPF
notes: ssb gene amplified with primers from the ATG start codon to the TGA stop codon, cloned between NdeI and HindIII of pET30Ek/LIC (pETSSBTma); No tag is mentioned; cloning between NdeI and HindIII with the gene's own stop codon probably leaves out the vector's tags (surmised); also called T. maritima SSB; source: E. coli BL21(DE3)pLysS, purified (heat treatment at 80°C, QAE-cellulose, …)
B2: single-stranded DNA-binding protein from Thermotoga neapolitana (TneSSB) (natural protein, UniProt D1M925 1-142, looked up)
chain: MSFFNRIILIGRLVRDPEERYTLSGTPVTTFTIAVDRVPRKNAPDDAQTTDFFRVVTFGRLAEFARTYLTKGRLILVEGEMRMRRWETQTGEKRVSPEVVANVVRFMDRKPVEMPSEDIEEKLEIPEEDFTDDTFSEDEPPF
notes: ssb gene amplified with primers from the ATG start codon to the TGA stop codon, cloned between NdeI and HindIII of pET30Ek/LIC (pETSSBTne); No tag is mentioned; cloning between NdeI and HindIII with the gene's own stop codon probably leaves out the vector's tags (surmised); also called T. neapolitana SSB; source: E. coli BL21(DE3)pLysS, purified (heat treatment at 80°C, QAE-cellulose, …)
B3: (dT)76 (titration) (ssDNA)
DNA: TTTTTTTTTTTTTTTTTTTTTTTTTTTTTTTTTTTTTTTTTTTTTTTTTTTTTTTTTTTTTTTTTTTTTTTTTTTT
B4: (dT)60 (ssDNA)
DNA: TTTTTTTTTTTTTTTTTTTTTTTTTTTTTTTTTTTTTTTTTTTTTTTTTTTTTTTTTTTT
B5: (dT)76 (ssDNA)
DNA: TTTTTTTTTTTTTTTTTTTTTTTTTTTTTTTTTTTTTTTTTTTTTTTTTTTTTTTTTTTTTTTTTTTTTTTTTTTT
B6: (dT)120 (ssDNA)
DNA: TTTTTTTTTTTTTTTTTTTTTTTTTTTTTTTTTTTTTTTTTTTTTTTTTTTTTTTTTTTTTTTTTTTTTTTTTTTTTTTTTTTTTTTTTTTTTTTTTTTTTTTTTTTTTTTTTTTTTTTT

Columns and labels:
[1] = molecular target: the molecule itself; test: SEC; FPLC analytical gel filtration on a Superdex HR 75 column, calibrated with bovine albumin, ovalbumin, carbon anhydrase and cytochrome C; oligomeric state in solution
[2] = molecular target: T1, TmaSSB; test: fluorescence titration (Trp quenching); 2 mM NaCl; cooperative affinity omega*K; site size 68 +/- 2 nt; quench 95%; 20 mM Tris-HCl pH 7.5, 1 mM EDTA, 2 or 100 mM NaCl, 25°C; EMSA 10 pmol oligo (1.5 pmol M13) with 10-200 pmol SSB in 10 µl, 2% agarose in TAE; titration 1 nM SSB with 0-0.8 nM (dT)76; settings: protein: recombinant; tags: none stated (NdeI/HindIII in pET30Ek/LIC, start and stop codon in primers); chain copies: 4; single strand
[3] = molecular target: T2, TneSSB; test: as above; settings: protein: recombinant; tags: none stated (NdeI/HindIII in pET30Ek/LIC, start and stop codon in primers); chain copies: 4; single strand
[4] = molecular target: T1, TmaSSB; test: EMSA (agarose); 2 or 100 mM NaCl; one tetramer; 20 mM Tris-HCl pH 7.5, 1 mM EDTA, 2 or 100 mM NaCl, 25°C; EMSA 10 pmol oligo (1.5 pmol M13) with 10-200 pmol SSB in 10 µl, 2% agarose in TAE; titration 1 nM SSB with 0-0.8 nM (dT)76; settings: protein: recombinant; tags: none stated (NdeI/HindIII in pET30Ek/LIC, start and stop codon in primers); chain copies: 4; label: 5'-fluorescein (EMSA); single strand
[5] = molecular target: T2, TneSSB; test: as above; settings: protein: recombinant; tags: none stated (NdeI/HindIII in pET30Ek/LIC, start and stop codon in primers); chain copies: 4; label: 5'-fluorescein (EMSA); single strand
[6] = molecular target: T1, TmaSSB; test: EMSA (agarose); 2 or 100 mM NaCl; two tetramers at high protein; 20 mM Tris-HCl pH 7.5, 1 mM EDTA, 2 or 100 mM NaCl, 25°C; EMSA 10 pmol oligo (1.5 pmol M13) with 10-200 pmol SSB in 10 µl, 2% agarose in TAE; titration 1 nM SSB with 0-0.8 nM (dT)76; settings: protein: recombinant; tags: none stated (NdeI/HindIII in pET30Ek/LIC, start and stop codon in primers); chain copies: 4; label: 5'-fluorescein (EMSA); single strand
[7] = molecular target: T2, TneSSB; test: as above; settings: protein: recombinant; tags: none stated (NdeI/HindIII in pET30Ek/LIC, start and stop codon in primers); chain copies: 4; label: 5'-fluorescein (EMSA); single strand

Binder | binding result [4] | binding result [5] | further results
B1 |  |  | stoichiometry N [1]: 4
B2 |  |  | stoichiometry N [1]: 4
B3 |  |  | binding result [2]: binds; binding result [3]: binds
B4 | binds | binds | 
B5 | binds | binds | 
B6 |  |  | binding result [6]: binds; binding result [7]: binds
TTTTTTTTTTTTTTTTTTTTTTTTTTTTTTTTTTT (ssDNA) [(dT)35] | binds | binds | 
